Target: Recombinant human FGF2 (fibroblast growth factor-2), biotinylated (human)
Experiment: AlphaScreen or HTRF

EC50: 7 nM
B1: mSDC1: commercial glycosylated, mammalian expressed recombinant mouse SDC1 ectodomain (domain or fragment)
chain: QIVAVNVPPEDQDGSGDDSDNFSGSGTGALPDTLSRQTPSTWKDVWLLTATPTAPEPTSSNTETAFTSVLPAGEKPEEGEPVLHVEAEPGFTARDKEKEVTTRPRETVQLPITQRASTVRVTTAQAAVTSHPHGGMQPGLHETSAPTAPGQPDHQPPRVEGGGTSVIKEVVEDGTANQLPAGEGSGEQDFTFETSGENTAVAAVEPGLRNQPPVDEGATGASQSLLDRKEVLG
modifications: native GAG chains from the mammalian host (CS predominant over HS by the paper's disaccharide analysis)
